Source: patent publication US7022489 (dated 2006)

T1: rat GALR3 (rat)
T1 chain: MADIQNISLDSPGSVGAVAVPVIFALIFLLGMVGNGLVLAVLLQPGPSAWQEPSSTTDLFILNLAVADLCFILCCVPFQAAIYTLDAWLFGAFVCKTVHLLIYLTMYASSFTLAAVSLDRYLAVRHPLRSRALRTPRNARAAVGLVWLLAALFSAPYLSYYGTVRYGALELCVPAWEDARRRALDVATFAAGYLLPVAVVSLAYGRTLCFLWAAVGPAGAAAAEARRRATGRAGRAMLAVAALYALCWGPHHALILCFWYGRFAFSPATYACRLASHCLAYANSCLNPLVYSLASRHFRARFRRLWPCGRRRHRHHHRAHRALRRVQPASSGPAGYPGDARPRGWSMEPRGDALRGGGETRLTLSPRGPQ

T2: human GALR3 (human)
T2 chain: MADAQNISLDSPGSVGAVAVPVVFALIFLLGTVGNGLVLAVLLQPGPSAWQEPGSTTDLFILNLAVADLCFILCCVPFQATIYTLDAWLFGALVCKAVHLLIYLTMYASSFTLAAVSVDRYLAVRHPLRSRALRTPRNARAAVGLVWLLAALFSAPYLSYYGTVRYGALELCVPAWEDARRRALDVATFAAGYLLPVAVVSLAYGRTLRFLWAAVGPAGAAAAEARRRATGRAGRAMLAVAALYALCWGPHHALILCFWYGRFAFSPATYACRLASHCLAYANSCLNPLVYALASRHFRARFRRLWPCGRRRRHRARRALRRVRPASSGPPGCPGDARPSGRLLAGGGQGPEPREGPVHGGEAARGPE


Legend:
rat GALR3 [1] = biological target: T1, rat GALR3; experiment: competition
rat GALR3 [2] = biological target: T1, rat GALR3; experiment: competition
human GALR3 [3] = biological target: T2, human GALR3; experiment: competition
rat GALR3 [4] = biological target: T1, rat GALR3; experiment: competition, COS-7
rat GALR3 [5] = biological target: T1, rat GALR3; experiment: competition, 293-rGalR3-105
rat GALR3 [6] = biological target: T1, rat GALR3; experiment: other, 125I-galanin saturation, COS-7 membranes
human GALR3 [7] = biological target: T2, human GALR3; experiment: other, 125I-galanin saturation, L-hGalR3-228 membranes

Binder	Ki (rat GALR3 [1])	Ki (rat GALR3 [2])	Ki (human GALR3 [3])	Ki (rat GALR3 [4])	Ki (rat GALR3 [5])	Kd (rat GALR3 [6])	Kd (human GALR3 [7])
D-Trp2-galanin 1-29 (protein, D-Trp at position 2, mature numbering) KRGWTLNSAGYLLGPHAIDNHRSFHDKYGLAGKRELEPEDEARPGGFDRLQSEDKAIRTIMEFLAFLHLKEAGALGRLPGLPSAASSEDAGQS	> 1000 nM	> 1000 nM	> 1000 nM	> 1000 nM	> 1000 nM	–	–
porcine galanin (protein) KRGWTLNSAGYLLGPHAIDNHRSFHDKYGLAGKRELEPEDEARPGGFDRLQSEDKAIRTIMEFLAFLHLKEAGALGRLPGLPSAASSEDAGQS	–	–	–	–	–	0.34 nM	2.57 nM
